Test results: PMC2789841

Key:
Test in all cases: SPR
[1] = target: Recombinant human CypD protein (cyclophilin D) (human) (UniProt P30405)
oligomeric Aβ42 = target: oligomeric Aβ42
oligomeric Aβ40 = target: oligomeric Aβ40

Row | Substance | Kd [1] [nM] | Kd (oligomeric Aβ42) [nM] | Kd (oligomeric Aβ40) [nM]
1 | Aβ40 (Aβ peptide residues 1-40) | 1700 | – | –
2 | Aβ42 (Aβ peptide residues 1-42) | 164 | – | –
3 | Recombinant human CypD protein (cyclophilin D) (from UniProt P30405 30-207) (natural protein) | – | 4 | 227
